± gives the uncertainty stated by the source.
Experiment: self-splicing fitness, log relative to wild type (ln ratio); higher = more splicing; Tetrahymena group I intron in knt gene, E. coli kanamycin selection, DiMSum; sequences stand for … in CUCUCU…GGAGGGAAAAGUUAUCAGGCAUGCACCUGGUAGCUAGUCUUUAAACCAAUAGAUUGCAUCGGUUUAAAAGGCAAGACCGUCAAAUUGCGGGAAAGGGGUCAACAGCCGUUCAGUACCAAGUCUCAGGGGAAACUUUGAGAUGGCCUUGCAAAGGGUAUGGUAAUAAGCUGACGGACAUGGUCCUAACCACGCAGCCAAGUCCUAAGUCAACAGAUCUUCUGUUGAUAUGGAUGCAGUUCACAGACUAAAUGUCGGUCGGGGAAGAUGUAUUCUUCUCAUAAGAUAUAGUCGGACCUCUCCUUAAUGGGAGCUAGCGGAUGAAGUGAUGCAACACUGGAGCCGCUGGGAACUAAUUUGUAUGCGAAAGUAUAUUGAUUAGUUUUGGAGUACUCGUGGUCG
Outline: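 The eight P1ex-region nucleotides of an intron in the knt kanamycin-resistance gene on pET-22b(+) were all randomised and the library put into E. coli BL21(DE3). Six replicate transformations were grown overnight at 37°C or 30°C on LB agar with or without 25 μg/mL kanamycin, together with 100 μg/mL carbenicillin, 50 μM IPTG and 0.2% rhamnose. Colonies were pooled and amplicon-sequenced on an Illumina HiSeq 2500. Fitness from DiMSum is the error-weighted combination of wild-type-normalised replicate fold changes, kanamycin over none.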

Row | Sequence | self-splicing fitness (ln) (30 °C) | self-splicing fitness (ln) (37 °C)
1 | ACGAAGCAAUAUUACGAAUU | -3.63 ± 0.17 | -2.37 ± 0.15
2 | ACGAAGCAAUAUUACGACCC | -0.88 ± 0.22 | 0.121 ± 0.26
3 | ACGAAGCAAUAUUACGACCG | -0.458 ± 0.12 | 0.219 ± 0.14
4 | ACGAAGCAAUAUUACGACGC | -0.651 ± 0.18 | -0.221 ± 0.16
5 | ACGAAGCAAUAUUACGAGAG | -3.39 ± 0.28 | -2.53 ± 0.22
6 | ACGAAGCAAUAUUACGAGGU | -3.96 ± 0.22 | -3.57 ± 0.22
7 | ACGAAGCAAUAUUACGAUAC | -3.68 ± 0.2 | -2.2 ± 0.22
8 | ACGAAGCAAUAUUACGAUUC | – | -2.8 ± 0.33
9 | ACGAAGCAAUAUUACGCAUA | -1.44 ± 0.08 | -0.782 ± 0.072
10 | ACGAAGCAAUAUUACGCCAC | -3.08 ± 0.19 | -2.56 ± 0.28
11 | ACGAAGCAAUAUUACGCCCA | -1.11 ± 0.17 | -0.748 ± 0.26
12 | ACGAAGCAAUAUUACGCCGA | -0.564 ± 0.086 | -0.414 ± 0.1
13 | ACGAAGCAAUAUUACGGCCA | -0.778 ± 0.091 | 0.402 ± 0.095
14 | ACGAAGCAAUAUUACGGCUA | 0.0742 ± 0.099 | 0.022 ± 0.11
15 | ACGAAGCAAUAUUACGGGGC | -3.36 ± 0.14 | -2.76 ± 0.16
16 | ACGAAGCAAUAUUACGGGUG | -1.74 ± 0.069 | -1.36 ± 0.083
17 | ACGAAGCAAUAUUACGGUAU | -2.57 ± 0.093 | -1.27 ± 0.091
18 | ACGAAGCAAUAUUACGGUUU | -3.17 ± 0.13 | -1.89 ± 0.12
19 | ACGAAGCAAUAUUACGUCGA | -2.34 ± 0.12 | -1.65 ± 0.1
20 | ACGAAGCAAUAUUACGUCGC | -3.22 ± 0.21 | -1.24 ± 0.17
21 | ACGAAGCAAUAUUACGUGCG | -1.35 ± 0.074 | -1.36 ± 0.089
22 | ACGAAGCAAUAUUACGUGCU | -2.96 ± 0.12 | -1.84 ± 0.14
23 | ACGCAGCAAUAUUACGAAUC | -4.07 ± 0.34 | -2.11 ± 0.22
24 | ACGCAGCAAUAUUACGAAUU | -4.01 ± 0.23 | -1.48 ± 0.1
25 | ACGCAGCAAUAUUACGCGCA | -0.215 ± 0.096 | 0.231 ± 0.11

Row | Sequence | self-splicing fitness (ln) (30 °C) | self-splicing fitness (ln) (37 °C)
26 | ACGCAGCAAUAUUACGCGUG | -3.43 ± 0.18 | -2.07 ± 0.17
27 | ACGCAGCAAUAUUACGGAGU | -2.79 ± 0.093 | -2.08 ± 0.12
28 | ACGCAGCAAUAUUACGGCCA | -0.646 ± 0.092 | 0.161 ± 0.12
29 | ACGCAGCAAUAUUACGGCUU | -0.345 ± 0.046 | -0.227 ± 0.057
30 | ACGCAGCAAUAUUACGGGAU | -2.32 ± 0.079 | -1.41 ± 0.089
31 | ACGCAGCAAUAUUACGGUAU | -2.67 ± 0.15 | -1.03 ± 0.12
32 | ACGCAGCAAUAUUACGGUGA | -1.39 ± 0.05 | 0.18 ± 0.063
33 | ACGCAGCAAUAUUACGUCGA | -2.34 ± 0.11 | -1.34 ± 0.092
34 | ACGCAGCAAUAUUACGUGCU | -3.65 ± 0.18 | -2.9 ± 0.19
35 | ACGCAGCAAUAUUACGUGUC | -3.37 ± 0.14 | -2.71 ± 0.2
36 | ACGCAGCAAUAUUACGUUCC | -1.71 ± 0.11 | -2.26 ± 0.19
37 | ACGCAGCAAUAUUACGUUGU | -3.57 ± 0.13 | -2.84 ± 0.12
38 | ACGGAGCAAUAUUACGAGUU | -3.23 ± 0.22 | -2.54 ± 0.33
39 | ACGGAGCAAUAUUACGAUAU | -2.48 ± 0.21 | -2.12 ± 0.23
40 | ACGGAGCAAUAUUACGAUGA | -2.56 ± 0.12 | -2.57 ± 0.19
41 | ACGGAGCAAUAUUACGAUUC | -2.11 ± 0.32 | –
42 | ACGGAGCAAUAUUACGCCUA | -2.13 ± 0.28 | -1.6 ± 0.27
43 | ACGGAGCAAUAUUACGCUAG | -2.63 ± 0.25 | -2.16 ± 0.34
44 | ACGGAGCAAUAUUACGGCCA | -1.69 ± 0.25 | -2.11 ± 0.23
45 | ACGGAGCAAUAUUACGGGAC | -2.93 ± 0.39 | -2.69 ± 0.36
46 | ACGGAGCAAUAUUACGGGUG | -3.61 ± 0.18 | -3.18 ± 0.22
47 | ACGGAGCAAUAUUACGUAGU | -2.37 ± 0.11 | -1.36 ± 0.12
48 | ACGGAGCAAUAUUACGUCCG | -3.13 ± 0.37 | -2.36 ± 0.42
49 | ACGGAGCAAUAUUACGUGGC | -4.63 ± 0.42 | –

Source: the supplement of paper PMC7877785
